From publication PMC6599211, “Structural basis of TFIIH activation for nucleotide excision repair” (Nature Communications, 2019)

B1: cryo-EM DNA scaffold (forked) (mixed)
DNA 1: CAAAGTCACGACCTAGACACTGCGAGCTCGAATTCACTGGAGTGACCTC
DNA 2: GAGGTCACTCCAGTGAATTCGAGCTCGCAACAATGAGCACATACCTAGT
B2: XPG (natural protein, human, UniProt P28715 1-1186, looked up)
chain: MGVQGLWKLLECSGRQVSPEALEGKILAVDISIWLNQALKGVRDRHGNSIENPHLLTLFHRLCKLLFFRIRPIFVFDGDAPLLKKQTLVKRRQRKDLASSDSRKTTEKLLKTFLKRQAIKTAFRSKRDEALPSLTQVRRENDLYVLPPLQEEEKHSSEEEDEKEWQERMNQKQALQEEFFHNPQAIDIESEDFSSLPPEVKHEILTDMKEFTKRRRTLFEAMPEESDDFSQYQLKGLLKKNYLNQHIEHVQKEMNQQHSGHIRRQYEDEGGFLKEVESRRVVSEDTSHYILIKGIQAKTVAEVDSESLPSSSKMHGMSFDVKSSPCEKLKTEKEPDATPPSPRTLLAMQAALLGSSSEEELESENRRQARGRNAPAAVDEGSISPRTLSAIKRALDDDEDVKVCAGDDVQTGGPGAEEMRINSSTENSDEGLKVRDGKGIPFTATLASSSVNSAEEHVASTNEGREPTDSVPKEQMSLVHVGTEAFPISDESMIKDRKDRLPLESAVVRHSDAPGLPNGRELTPASPTCTNSVSKNETHAEVLEQQNELCPYESKFDSSLLSSDDETKCKPNSASEVIGPVSLQETSSIVSVPSEAVDNVENVVSFNAKEHENFLETIQEQQTTESAGQDLISIPKAVEPMEIDSEESESDGSFIEVQSVISDEELQAEFPETSKPPSEQGEEELVGTREGEAPAESESLLRDNSERDDVDGEPQEAEKDAEDSLHEWQDINLEELETLESNLLAQQNSLKAQKQQQERIAATVTGQMFLESQELLRLFGIPYIQAPMEAEAQCAILDLTDQTSGTITDDSDIWLFGARHVYRNFFNKNKFVEYYQYVDFHNQLGLDRNKLINLAYLLGSDYTEGIPTVGCVTAMEILNEFPGHGLEPLLKFSEWWHEAQKNPKIRPNPHDTKVKKKLRTLQLTPGFPNPAVAEAYLKPVVDDSKGSFLWGKPDLDKIREFCQRYFGWNRTKTDESLFPVLKQLDAQQTQLRIDSFFRLAQQEKEDAKRIKSQRLNRAVTCMLRKEKEAAASEIEAVSVAMEKEFELLDKAKGKTQKRGITNTLEESSSLKRKRLSDSKGKNTCGGFLGETCLSESSDGSSSEDAESSSLMNVQRRTAAKEPKTSASDSQNSVKEAPVKNGGATTSSSSDSDDDGGKEKMVLVTARSVFGKKRRKLRRARGRKRKT

Tests used:
[1] = target: XPB (core TFIIH);XPD (core TFIIH);p62 (core TFIIH);p52 (core TFIIH);p44 (core TFIIH);p34 (core TFIIH);TTDA/p8 … (Homo sapiens;Homo sapiens;Homo …, UniProt P19447;P18074;P32780;Q92759;Q13888;Q13889;Q6ZYL4;P23025 …, |||||||); test: cryo-EM structure (3.6 A); 2 mM Mg2+ at assembly; XPG E791A added (3:1 excess over TFIIH) but not visible in the map; glutaraldehyde-fixed gradient; DNA register shift not excluded; Complex assembly: 150 mM KCl, 20 mM KOH:HEPES pH 7.0, 10% glycerol, 2 mM MgCl2, 5 mM beta-mercaptoethanol; sucrose gradient pH 7.5, 4 C, 0.1% glutaraldehyde; helicase/triplex assays (turnover) left out; details: copies: 1;1;1;1;1;1;1;1; fork, 29 bp duplex 1:21-49 with 2:1-29; unpaired arms 20 nt 5' (strand 1: 1-20) and 20 nt 3' (strand 2: 30-49)
[2] = target: human TFIIH core module (core TFIIH), seven subunits: XPB, XPD, p62, p52, p44, p34, TTDA (human, UniProt P19447 1-782; P18074 1-760; P32780 1-548; Q92759 1-462; Q13888 1-395; Q13889 …); test: cell-based or functional assay

| Binder | binding result [1] | XPD 5′–3′ helicase activity of core TFIIH (rate of DNA unwinding, stopped-flow kinetics), with XPG against without [2] [fold] |
| --- | --- | --- |
| B1 | binds |  |
| B2 |  | 20 |
